Experimental data taken from patent publication US10472401B2, “Peptides and combination of peptides for use in immunotherapy against ovarian cancer and other cancers” (immatics biotechnologies GmbH, priority 2015, dated 2019).

Biological target: HLA-A*02:01 (Homo sapiens, UniProt P04439, D140Y/D185E/D98H/E176V/E277Q/G131W/G231S/I119V/I121R/I166T/I218V/L300P/L318F/N151K/N90K/P208A/P217A/Q86G/Q94H/R138H/R169H/T345S)
Assay: MHC binding assay (UV-ligand exchange, ELISA of stabilized MHC complexes)
Details: MHC class I binding score; binding to HLA-A*02:01 ranged by peptide exchange yield (UV-ligand exchange, ELISA)
How it was run: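 Peptide-MHC complexes made by UV-ligand exchange, cleaving a UV-sensitive placeholder peptide and replacing it with the test peptide. Exchange yield measured by ELISA: streptavidin-captured monomers (diluted 100-fold, 1 h, 37 °C) detected with HRP anti-β2m and TMB, absorbance at 450 nm.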

479 (SLFGNSGILENV; listed as Homo sapiens) [compound 479]
Peptide exchange: ″+++″ (≥50% = +++)

442 (GLLGGGGVLGV; listed as Homo sapiens) [compound 442]
Peptide exchange: ″+++″ (≥50% = +++)

120 (ALLGIPLTLV; listed as Homo sapiens) [compound 120]
Peptide exchange: ″+++″ (≥50% = +++)

407 (YLMDLINFL; listed as Homo sapiens) [compound 407]
Peptide exchange: ″+++″ (≥50% = +++)

471 (YLYNNMIAKI; listed as Homo sapiens) [compound 471]
Peptide exchange: ″+++″ (≥50% = +++)

348 (ILLDVKTRL; listed as Homo sapiens) [compound 348]
Peptide exchange: ″++++″ (≥75% = ++++)

83 (ILAPTVMMI; listed as Homo sapiens) [compound 83]
Peptide exchange: ″+++″ (≥50% = +++)

385 (SLLEQGLVEA; listed as Homo sapiens) [compound 385]
Peptide exchange: ″++″ (≥20% = ++)

444 (GLLRDEALAEV; listed as Homo sapiens) [compound 444]
Peptide exchange: ″+++″ (≥50% = +++)

361 (ALYELEGTTV; listed as Homo sapiens) [compound 361]
Peptide exchange: ″+++″ (≥50% = +++)

576 (ILLNNSGQIKL; listed as Homo sapiens) [compound 576]
Peptide exchange: ″++++″ (≥75% = ++++)

541 (SMLEPVPEL; listed as Homo sapiens) [compound 541]
Peptide exchange: ″+++″ (≥50% = +++)

114 (SLVGEPILQNV; listed as Homo sapiens) [compound 114]
Peptide exchange: ″++″ (≥20% = ++)

13 (YLMDESLNL; listed as Homo sapiens) [compound 13]
Peptide exchange: ″+++″ (≥50% = +++)

106 (LLYDAVHIVSV; listed as Homo sapiens) [compound 106]
Peptide exchange: ″+++″ (≥50% = +++)

619 (ALQDRVPLA; listed as Homo sapiens) [compound 619]
Peptide exchange: ″+++″ (≥50% = +++)

220 (LLQKFVPEI; listed as Homo sapiens) [compound 220]
Peptide exchange: ″++″ (≥20% = ++)

190 (FLSSLTETI; listed as Homo sapiens) [compound 190]
Peptide exchange: ″+++″ (≥50% = +++)

248 (FLFPNQYVDV; listed as Homo sapiens) [compound 248]
Peptide exchange: ″+++″ (≥50% = +++)

320 (KMFEFVEPLL; listed as Homo sapiens) [compound 320]
Peptide exchange: ″++++″ (≥75% = ++++)

611 (YLLDDGTLVV; listed as Homo sapiens) [compound 611]
Peptide exchange: ″++++″ (≥75% = ++++)

35 (KINDTIYEV; listed as Homo sapiens) [compound 35]
Peptide exchange: ″+++″ (≥50% = +++)

126 (VLAYFLPEA; listed as Homo sapiens) [compound 126]
Peptide exchange: ″++++″ (≥75% = ++++)

451 (LLLLDTVTMQV; listed as Homo sapiens) [compound 451]
Peptide exchange: ″++″ (≥20% = ++)

517 (LLMPIPEGLTL; listed as Homo sapiens) [compound 517]
Peptide exchange: ″+++″ (≥50% = +++)

245 (SMIDDLLGV; listed as Homo sapiens) [compound 245]
Peptide exchange: ″+++″ (≥50% = +++)

578 (FLDPGGPMMKL; listed as Homo sapiens) [compound 578]
Peptide exchange: ″+++″ (≥50% = +++)

101 (ILVGGGALATV; listed as Homo sapiens) [compound 101]
Peptide exchange: ″+++″ (≥50% = +++)

381 (FIDEAYVEV; listed as Homo sapiens) [compound 381]
Peptide exchange: ″++″ (≥20% = ++)

565 (ALQETPTSV; listed as Homo sapiens) [compound 565]
Peptide exchange: ″++″ (≥20% = ++)

528 (SVAEGRALMSV; listed as Homo sapiens) [compound 528]
Peptide exchange: ″+++″ (≥50% = +++)

606 (ALWETEVYI; listed as Homo sapiens) [compound 606]
Peptide exchange: ″+++″ (≥50% = +++)

258 (ELAERVPAI; listed as Homo sapiens) [compound 258]
Peptide exchange: ″++″ (≥20% = ++)

409 (LLDAMNYHL; listed as Homo sapiens) [compound 409]
Peptide exchange: ″++″ (≥20% = ++)

234 (ALMEDTGRQML; listed as Homo sapiens) [compound 234]
Peptide exchange: ″++″ (≥20% = ++)

473 (AMATESILHFA; listed as Homo sapiens) [compound 473]
Peptide exchange: ″+++″ (≥50% = +++)

556 (FLTDLEDLTL; listed as Homo sapiens) [compound 556]
Peptide exchange: ″+++″ (≥50% = +++)

271 (LVYPLELYPA; listed as Homo sapiens) [compound 271]
Peptide exchange: ″+++″ (≥50% = +++)

476 (ALMERTGYSMV; listed as Homo sapiens) [compound 476]
Peptide exchange: ″+++″ (≥50% = +++)

117 (ILPDGEDFLAV; listed as Homo sapiens) [compound 117]
Peptide exchange: ″+++″ (≥50% = +++)

577 (VMFEDGVLMRL; listed as Homo sapiens) [compound 577]
Peptide exchange: ″+++″ (≥50% = +++)

137 (TLVLTLPTV; listed as Homo sapiens) [compound 137]
Peptide exchange: ″++++″ (≥75% = ++++)

440 (ALADGVTMQV; listed as Homo sapiens) [compound 440]
Peptide exchange: ″++″ (≥20% = ++)

399 (YLFEPLYHV; listed as Homo sapiens) [compound 399]
Peptide exchange: ″+++″ (≥50% = +++)

549 (AMLENASDIKL; listed as Homo sapiens) [compound 549]
Peptide exchange: ″+++″ (≥50% = +++)

77 (ILVEADGAWVV; listed as Homo sapiens) [compound 77]
Peptide exchange: ″++++″ (≥75% = ++++)

214 (FLLDLDPLLL; listed as Homo sapiens) [compound 214]
Peptide exchange: ″+++″ (≥50% = +++)

400 (SLLTEQDLWTV; listed as Homo sapiens) [compound 400]
Peptide exchange: ″++″ (≥20% = ++)

332 (YLISELEAA; listed as Homo sapiens) [compound 332]
Peptide exchange: ″+++″ (≥50% = +++)

226 (MLYVVPIYL; listed as Homo sapiens) [compound 226]
Peptide exchange: ″++″ (≥20% = ++)

209 (KLIESKHEV; listed as Homo sapiens) [compound 209]
Peptide exchange: ″++″ (≥20% = ++)

457 (SLLPGNLVEKV; listed as Homo sapiens) [compound 457]
Peptide exchange: ″+++″ (≥50% = +++)

370 (SLLQDLVSV; listed as Homo sapiens) [compound 370]
Peptide exchange: ″+++″ (≥50% = +++)

529 (LLADELITV; listed as Homo sapiens) [compound 529]
Peptide exchange: ″+++″ (≥50% = +++)

380 (TLIEDEIATI; listed as Homo sapiens) [compound 380]
Peptide exchange: ″++″ (≥20% = ++)

318 (GLINTGVLSV; listed as Homo sapiens) [compound 318]
Peptide exchange: ″++″ (≥20% = ++)

49 (YLPAVFEEV; listed as Homo sapiens) [compound 49]
Peptide exchange: ″+++″ (≥50% = +++)

605 (KLYEAVPQL; listed as Homo sapiens) [compound 605]
Peptide exchange: ″+++″ (≥50% = +++)
